{"source": "paper PMC8269367", "key": {"HMGN3 (Homo sapiens)": {"target": "HMGN3 (Homo sapiens) (UniProt Q15651)", "sequence (Q15651 whole entry)": "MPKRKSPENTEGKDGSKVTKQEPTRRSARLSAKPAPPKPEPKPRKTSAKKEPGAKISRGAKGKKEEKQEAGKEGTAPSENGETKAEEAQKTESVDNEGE", "test": "MST", "settings": "50 nM labelled protein, 0.61 nM-20 uM oligo, 140 mM potassium phosphate pH 7.2 (6.7 for i-motif N1-3; CTCF oligo CD at pH 6.7), 10 mM NaCl in oligo …"}, "CTCF (Mus musculus)": {"target": "T1, CTCF (Mus musculus) (UniProt Q61164)", "T1 sequence": "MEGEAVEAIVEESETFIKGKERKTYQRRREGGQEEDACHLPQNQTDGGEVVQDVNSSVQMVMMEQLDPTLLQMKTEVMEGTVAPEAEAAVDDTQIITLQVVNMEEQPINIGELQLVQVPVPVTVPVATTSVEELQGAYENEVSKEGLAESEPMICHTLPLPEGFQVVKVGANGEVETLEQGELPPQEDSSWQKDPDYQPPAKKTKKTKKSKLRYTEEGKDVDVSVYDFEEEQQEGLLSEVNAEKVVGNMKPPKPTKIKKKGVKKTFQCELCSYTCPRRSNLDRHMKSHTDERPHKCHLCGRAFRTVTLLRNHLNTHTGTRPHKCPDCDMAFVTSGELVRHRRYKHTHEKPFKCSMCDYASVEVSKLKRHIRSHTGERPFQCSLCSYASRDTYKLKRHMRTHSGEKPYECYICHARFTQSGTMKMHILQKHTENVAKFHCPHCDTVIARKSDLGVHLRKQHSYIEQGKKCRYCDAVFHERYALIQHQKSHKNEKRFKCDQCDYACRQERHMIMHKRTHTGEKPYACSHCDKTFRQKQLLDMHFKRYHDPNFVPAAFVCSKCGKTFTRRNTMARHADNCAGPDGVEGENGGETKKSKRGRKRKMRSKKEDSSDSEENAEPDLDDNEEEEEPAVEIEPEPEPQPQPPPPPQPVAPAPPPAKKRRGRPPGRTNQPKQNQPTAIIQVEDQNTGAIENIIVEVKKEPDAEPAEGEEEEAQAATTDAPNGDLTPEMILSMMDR", "test": "MST", "settings": "50 nM labelled protein, 0.61 nM-20 uM oligo, 140 mM potassium phosphate pH 7.2 (6.7 for i-motif N1-3; CTCF oligo CD at pH 6.7), 10 mM NaCl in oligo …"}}, "data": [{"substance": "AAAAAAAAAAAAAAAAAAAA [A20]", "values": [{"measurement": "Kd", "setting": "HMGN3 (Homo sapiens)", "result": "> 20000", "unit": "nM"}]}, {"substance": "control CTCF duplex", "values": [{"measurement": "Kd", "setting": "CTCF (Mus musculus)", "result": 80, "unit": "nM"}]}, {"substance": "TTTTCTTCTTCTTTT (double strand) [N3-1/N3C-1]", "values": [{"measurement": "Kd", "setting": "HMGN3 (Homo sapiens)", "result": "> 20000", "unit": "nM"}]}, {"substance": "GGGGACGAAGGGGGCGCGGTGCCTCCTGG [N3-M7]", "values": [{"measurement": "Kd", "setting": "HMGN3 (Homo sapiens)", "result": 150, "unit": "nM"}]}, {"substance": "GGAGCAGGTGGGGAGCAGGCCGGAAGAGG [N3-M5]", "values": [{"measurement": "Kd", "setting": "HMGN3 (Homo sapiens)", "result": "> 20000", "unit": "nM"}]}, {"substance": "AAGGAAAAGAAAAAA (double strand) [N3-2/N3C-2]", "values": [{"measurement": "Kd", "setting": "HMGN3 (Homo sapiens)", "result": "> 20000", "unit": "nM"}]}, {"substance": "GGGGCCAGTGGACGCGGGGAGCCTGCGGG [N3-M6]", "values": [{"measurement": "Kd", "setting": "HMGN3 (Homo sapiens)", "result": "> 10000", "unit": "nM"}]}, {"substance": "CAATCGGATCGAATTCGATCCGATTG [hair (ds26)]", "values": [{"measurement": "Kd", "setting": "HMGN3 (Homo sapiens)", "result": "> 20000", "unit": "nM"}]}, {"substance": "GGGGGGCGGGGGGCGGGGGGGGGGG [BDN-G4]", "values": [{"measurement": "Kd", "setting": "CTCF (Mus musculus)", "result": 120, "unit": "nM"}]}, {"substance": "GGGGGTGGGGGGTGGGGGGAGGGGGG [SHA-G4]", "values": [{"measurement": "Kd", "setting": "CTCF (Mus musculus)", "result": 70, "unit": "nM"}]}, {"substance": "TTTTTTTTTTTTTTTTTTTT [T20]", "values": [{"measurement": "Kd", "setting": "HMGN3 (Homo sapiens)", "result": "> 20000", "unit": "nM"}]}]}
